Data: publication PMC11077089, “Molecular basis of A. thaliana KEOPS complex in biosynthesizing tRNA t6A”

Legend:
[1] = molecular target: T1, KAE1;BUD32 K51E;CGI121;PCC1 (Arabidopsis thaliana;Arabidopsis …, UniProt O49653;Q94K14;Q6NMZ4;Q8GWD7 1-353;1-226;1-172;1-96, |K51E||); assay: MST; MST: 20 mM PBS pH 7.5, 300 mM NaCl, 0.05% Tween 20, 25 C, 50 nM RNA; EMSA: 20 mM Tris-HCl pH 7.5, 300 mM NaCl, 5 mM b-mercaptoethanol, 20% glycerol, agarose gel in Tris-glycine pH 8.0 (8.5 for FAM-RNA), 4 C; conditions: protein: recombinant;recombinant;recombinant;recombinant; tags: none (6His on partner PCC1);;6His (C-term);6His (C-term); chain copies: 2;2;2;2; label: 5' 6-FAM; tRNA cloverleaf
T1 sequence 1: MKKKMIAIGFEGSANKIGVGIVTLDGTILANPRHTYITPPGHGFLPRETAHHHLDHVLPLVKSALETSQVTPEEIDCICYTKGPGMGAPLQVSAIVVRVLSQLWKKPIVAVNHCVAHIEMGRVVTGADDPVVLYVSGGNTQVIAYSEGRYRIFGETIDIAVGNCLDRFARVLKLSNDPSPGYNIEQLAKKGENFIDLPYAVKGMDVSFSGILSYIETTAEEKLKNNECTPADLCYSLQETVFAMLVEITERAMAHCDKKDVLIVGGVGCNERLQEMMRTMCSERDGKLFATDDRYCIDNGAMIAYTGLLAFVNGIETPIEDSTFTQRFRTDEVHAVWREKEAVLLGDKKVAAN
T1 sequence 2: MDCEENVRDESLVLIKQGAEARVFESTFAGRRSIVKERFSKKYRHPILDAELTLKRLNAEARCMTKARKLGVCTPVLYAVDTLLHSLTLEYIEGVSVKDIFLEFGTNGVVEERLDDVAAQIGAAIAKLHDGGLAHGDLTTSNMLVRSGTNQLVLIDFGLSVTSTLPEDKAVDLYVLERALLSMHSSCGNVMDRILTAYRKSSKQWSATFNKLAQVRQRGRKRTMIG
T1 sequence 3: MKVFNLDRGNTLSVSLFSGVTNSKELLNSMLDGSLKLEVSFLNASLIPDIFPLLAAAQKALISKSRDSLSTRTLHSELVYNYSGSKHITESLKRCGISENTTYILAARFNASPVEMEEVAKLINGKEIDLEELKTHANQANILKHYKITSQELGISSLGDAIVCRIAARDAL
T1 sequence 4: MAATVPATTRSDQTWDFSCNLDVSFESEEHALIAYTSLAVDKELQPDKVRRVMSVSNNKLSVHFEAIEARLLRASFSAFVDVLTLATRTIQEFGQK

KAE1;BUD32;PCC1 = molecular target: T2, KAE1;BUD32;PCC1 (Arabidopsis thaliana;Arabidopsis …, UniProt O49653;Q94K14;Q8GWD7 1-353;1-226;1-96, ||); assay: as above; conditions: protein: recombinant;recombinant;recombinant; tags: none (6His on partner PCC1);none (6His on partner CGI121);6His (C-term); chain copies: 2;2;2; label: 5' 6-FAM; tRNA cloverleaf
T2 sequence 1: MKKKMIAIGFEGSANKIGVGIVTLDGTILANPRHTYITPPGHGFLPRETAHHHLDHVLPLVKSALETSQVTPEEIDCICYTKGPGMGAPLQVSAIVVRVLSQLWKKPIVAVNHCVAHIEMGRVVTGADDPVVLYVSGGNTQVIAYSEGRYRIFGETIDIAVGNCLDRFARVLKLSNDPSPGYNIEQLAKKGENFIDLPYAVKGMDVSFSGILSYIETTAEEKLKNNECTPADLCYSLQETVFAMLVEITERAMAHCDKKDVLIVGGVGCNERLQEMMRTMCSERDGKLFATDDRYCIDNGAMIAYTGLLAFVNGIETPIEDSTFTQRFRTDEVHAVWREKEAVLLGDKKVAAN
T2 sequence 2: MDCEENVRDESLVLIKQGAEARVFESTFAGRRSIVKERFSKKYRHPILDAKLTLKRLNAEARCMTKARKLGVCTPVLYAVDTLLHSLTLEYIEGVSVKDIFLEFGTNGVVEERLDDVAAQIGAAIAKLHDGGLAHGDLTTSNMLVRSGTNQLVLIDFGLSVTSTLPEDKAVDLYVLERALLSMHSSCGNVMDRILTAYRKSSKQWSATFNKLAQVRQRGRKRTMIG
T2 sequence 3: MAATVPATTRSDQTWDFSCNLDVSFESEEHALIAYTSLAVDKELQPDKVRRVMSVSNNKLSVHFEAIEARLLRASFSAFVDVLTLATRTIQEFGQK

[2] = molecular target: T3, KAE1;BUD32 T162R;CGI121;PCC1 (Arabidopsis thaliana;Arabidopsis …, UniProt O49653;Q94K14;Q6NMZ4;Q8GWD7 1-353;1-226;1-172;1-96, |T162R||); assay: as above; conditions: protein: recombinant;recombinant;recombinant;recombinant; tags: none (6His on partner PCC1);;6His (C-term);6His (C-term); chain copies: 2;2;2;2; label: 5' 6-FAM; tRNA cloverleaf
T3 sequence 1: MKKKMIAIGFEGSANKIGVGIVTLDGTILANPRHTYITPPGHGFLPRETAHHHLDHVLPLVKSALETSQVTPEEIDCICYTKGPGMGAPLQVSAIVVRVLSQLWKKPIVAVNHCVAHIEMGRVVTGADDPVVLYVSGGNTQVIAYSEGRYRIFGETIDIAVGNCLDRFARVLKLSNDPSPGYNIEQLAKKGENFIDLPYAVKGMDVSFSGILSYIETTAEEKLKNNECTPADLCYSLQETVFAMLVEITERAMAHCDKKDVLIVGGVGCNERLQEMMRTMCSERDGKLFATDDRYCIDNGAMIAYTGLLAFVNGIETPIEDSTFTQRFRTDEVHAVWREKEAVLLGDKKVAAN
T3 sequence 2: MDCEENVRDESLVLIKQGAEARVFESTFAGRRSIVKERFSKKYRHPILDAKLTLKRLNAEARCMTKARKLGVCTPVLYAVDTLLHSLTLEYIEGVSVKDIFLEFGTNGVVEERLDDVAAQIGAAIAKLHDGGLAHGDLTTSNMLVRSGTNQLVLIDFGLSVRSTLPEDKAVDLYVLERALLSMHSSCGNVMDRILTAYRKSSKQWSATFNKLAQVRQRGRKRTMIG
T3 sequence 3: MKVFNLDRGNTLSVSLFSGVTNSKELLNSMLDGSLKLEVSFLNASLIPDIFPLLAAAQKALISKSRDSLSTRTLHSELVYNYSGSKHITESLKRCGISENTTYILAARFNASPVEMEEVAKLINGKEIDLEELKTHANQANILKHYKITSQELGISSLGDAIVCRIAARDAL
T3 sequence 4: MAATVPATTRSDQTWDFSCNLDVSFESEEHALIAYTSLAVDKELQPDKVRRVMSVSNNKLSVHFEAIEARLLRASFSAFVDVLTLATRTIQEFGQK

KAE1;BUD32;CGI121;PCC1 = molecular target: T4, KAE1;BUD32;CGI121;PCC1 (Arabidopsis thaliana;Arabidopsis …, UniProt O49653;Q94K14;Q6NMZ4;Q8GWD7 1-353;1-226;1-172;1-96, |||); assay: MST; KEOPS dimer; MST: 20 mM PBS pH 7.5, 300 mM NaCl, 0.05% Tween 20, 25 C, 50 nM RNA; EMSA: 20 mM Tris-HCl pH 7.5, 300 mM NaCl, 5 mM b-mercaptoethanol, 20% glycerol, agarose gel in Tris-glycine pH 8.0 (8.5 for FAM-RNA), 4 C; conditions: protein: recombinant;recombinant;recombinant;recombinant; tags: none (6His on partner PCC1);none (6His on partner CGI121);6His (C-term);6His (C-term); chain copies: 2;2;2;2; label: 5' 6-FAM; tRNA cloverleaf
T4 sequence 1: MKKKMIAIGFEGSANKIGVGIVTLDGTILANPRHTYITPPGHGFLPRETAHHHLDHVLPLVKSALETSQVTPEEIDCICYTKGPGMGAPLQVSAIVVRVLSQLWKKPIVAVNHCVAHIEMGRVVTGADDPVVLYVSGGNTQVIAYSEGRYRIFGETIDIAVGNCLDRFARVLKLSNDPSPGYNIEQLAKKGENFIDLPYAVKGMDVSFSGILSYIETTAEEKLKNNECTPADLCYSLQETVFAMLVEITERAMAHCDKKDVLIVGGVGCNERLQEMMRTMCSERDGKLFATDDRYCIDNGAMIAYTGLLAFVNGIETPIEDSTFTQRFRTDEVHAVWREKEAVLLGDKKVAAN
T4 sequence 2: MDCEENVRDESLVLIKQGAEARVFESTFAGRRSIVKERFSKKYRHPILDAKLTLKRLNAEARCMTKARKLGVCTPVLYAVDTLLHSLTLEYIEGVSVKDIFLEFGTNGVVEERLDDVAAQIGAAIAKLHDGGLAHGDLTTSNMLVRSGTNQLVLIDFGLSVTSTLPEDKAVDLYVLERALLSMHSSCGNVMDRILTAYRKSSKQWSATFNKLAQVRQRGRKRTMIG
T4 sequence 3: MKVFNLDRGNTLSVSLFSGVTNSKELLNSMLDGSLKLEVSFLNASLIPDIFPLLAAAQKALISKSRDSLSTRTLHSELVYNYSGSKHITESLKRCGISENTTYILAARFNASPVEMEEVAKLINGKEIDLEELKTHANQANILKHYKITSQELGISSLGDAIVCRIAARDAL
T4 sequence 4: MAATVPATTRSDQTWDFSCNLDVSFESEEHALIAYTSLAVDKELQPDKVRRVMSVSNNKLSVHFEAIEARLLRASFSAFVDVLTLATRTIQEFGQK

[3] = molecular target: T5, KAE1;BUD32;CGI121;PCC1 R70D/R73D/A74E (Arabidopsis thaliana;Arabidopsis …, UniProt O49653;Q94K14;Q6NMZ4;Q8GWD7 1-353;1-226;1-172;1-96, |||R70D;R73D;A74E); assay: MST; KEOPS monomer; MST: 20 mM PBS pH 7.5, 300 mM NaCl, 0.05% Tween 20, 25 C, 50 nM RNA; EMSA: 20 mM Tris-HCl pH 7.5, 300 mM NaCl, 5 mM b-mercaptoethanol, 20% glycerol, agarose gel in Tris-glycine pH 8.0 (8.5 for FAM-RNA), 4 C; conditions: protein: recombinant;recombinant;recombinant;recombinant; tags: none (6His on partner PCC1);none (6His on partner CGI121);6His (C-term);6His (C-term); chain copies: 2;2;2;2; label: 5' 6-FAM; tRNA cloverleaf
T5 sequence 1: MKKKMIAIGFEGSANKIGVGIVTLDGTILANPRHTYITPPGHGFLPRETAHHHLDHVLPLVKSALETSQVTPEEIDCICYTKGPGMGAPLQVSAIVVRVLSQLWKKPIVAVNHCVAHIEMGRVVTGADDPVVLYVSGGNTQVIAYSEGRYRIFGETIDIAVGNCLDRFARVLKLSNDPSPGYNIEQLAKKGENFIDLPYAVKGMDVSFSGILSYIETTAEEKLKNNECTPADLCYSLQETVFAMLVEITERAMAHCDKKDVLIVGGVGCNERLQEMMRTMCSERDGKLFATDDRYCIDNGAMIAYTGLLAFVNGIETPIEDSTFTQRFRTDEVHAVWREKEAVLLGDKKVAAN
T5 sequence 2: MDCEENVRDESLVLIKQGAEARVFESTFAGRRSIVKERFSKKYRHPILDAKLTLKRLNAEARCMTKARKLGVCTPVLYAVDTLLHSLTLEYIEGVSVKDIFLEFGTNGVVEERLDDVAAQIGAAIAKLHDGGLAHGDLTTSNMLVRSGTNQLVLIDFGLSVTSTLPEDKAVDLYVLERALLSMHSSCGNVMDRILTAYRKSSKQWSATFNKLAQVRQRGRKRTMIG
T5 sequence 3: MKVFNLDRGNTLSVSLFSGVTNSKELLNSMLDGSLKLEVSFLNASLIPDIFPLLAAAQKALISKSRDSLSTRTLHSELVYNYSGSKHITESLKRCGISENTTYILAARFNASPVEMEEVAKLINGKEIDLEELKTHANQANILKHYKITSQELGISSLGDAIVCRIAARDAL
T5 sequence 4: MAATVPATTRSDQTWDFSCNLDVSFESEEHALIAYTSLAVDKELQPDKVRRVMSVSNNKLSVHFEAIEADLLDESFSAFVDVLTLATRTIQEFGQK

B1: 5'-6FAM-tRNAArgCCU (structured_RNA)
RNA: GCGCCUGUAGCUCAGUGGAUAGAGCGUCUGUUUCCUAAGCAGAAGGUCGUAGGUUCGACCCCUACCUGGCGCGCCA
**Q.** Which results are given for B1?
**A.** Kd [1]: 29.8 ± 10.7 µM; Kd (KAE1;BUD32;PCC1): 38 ± 13.6 µM; Kd [2]: 10.5 ± 2.99 µM; Kd (KAE1;BUD32;CGI121;PCC1): 18.1 ± 3.87 µM; Kd [3]: 74.4 ± 13.5 µM
